Experimental findings from PMC5976439 are described below.

Test [1] has as its target APM (acidic patch mutant) mononucleosome, H2A E61A, E64A, D90A, D92A (Xenopus laevis).
Test [2] concerns the target wild type mononucleosome (recombinant Xenopus laevis histone octamer on 601 DNA) (Xenopus laevis).
For test [3] the target is unchanged. This is another data set of the same source.

As to “SNF2h (human ISWI ATPase), purified from E. coli (from UniProt O60264 1-1052) (enzyme)”, in test [1], the apparent Km (KM^app) of the gel remodeling rate against SNF2h concentration, 0/60 APM nucleosomes, cooperative binding model was determined as 0.28 µM. Moreover, the apparent Km (KM^app) of the gel remodeling rate against SNF2h concentration, 0/60 WT nucleosomes, cooperative binding model in test [2] was found to be 0.061 µM. “LANA peptide (from the latency associated nuclear antigen of Kaposi's sarcoma-associated herpesvirus)”: the reduction of the rate constant of remodeling of WT nucleosomes by sub-saturating SNF2h, dose-dependent, up to 50 µM LANA peptide; the pair that is blocked: SNF2h and the nucleosome in test [3] stood at 200 fold.
